The values that follow come from publication PMC6061704 (Nucleic Acids Research, 2018).

The target of data set [1] is T1, N-terminal His-tagged SisHjm (Hjm/Hel308a helicase from Sulfolobus islandicus) (Sulfolobus islandicus, UniProt F0NDL2 1-715).
T1 sequence (looked up): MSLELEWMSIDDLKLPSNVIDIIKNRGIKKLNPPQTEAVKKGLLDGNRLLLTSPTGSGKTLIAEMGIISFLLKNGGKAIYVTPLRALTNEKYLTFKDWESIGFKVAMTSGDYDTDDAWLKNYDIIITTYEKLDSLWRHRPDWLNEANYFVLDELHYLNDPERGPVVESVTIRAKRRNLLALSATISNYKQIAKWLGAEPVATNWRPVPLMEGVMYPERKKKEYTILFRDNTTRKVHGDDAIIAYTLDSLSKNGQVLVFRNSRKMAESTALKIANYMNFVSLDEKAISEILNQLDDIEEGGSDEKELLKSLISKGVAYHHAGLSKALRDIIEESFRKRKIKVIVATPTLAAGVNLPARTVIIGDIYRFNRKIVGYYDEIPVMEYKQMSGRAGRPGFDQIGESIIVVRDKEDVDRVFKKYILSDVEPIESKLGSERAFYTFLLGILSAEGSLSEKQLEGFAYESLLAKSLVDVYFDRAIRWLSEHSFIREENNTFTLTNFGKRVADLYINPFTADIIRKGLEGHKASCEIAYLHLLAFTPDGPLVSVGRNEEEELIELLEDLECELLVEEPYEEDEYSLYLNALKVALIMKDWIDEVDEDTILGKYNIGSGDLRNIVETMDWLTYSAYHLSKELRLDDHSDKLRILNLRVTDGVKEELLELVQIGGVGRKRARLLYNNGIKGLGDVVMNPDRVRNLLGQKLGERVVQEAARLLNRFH
In words: SEC. Background: Size exclusion chromatography separates by hydrodynamic size, large species first.

Data set [2] deals with the molecule itself. The data set can be described thus: SEC.

B1: SisPINA (PIN domain-containing ATPase from Sulfolobus islandicus), recombinant, without tag (enzyme, UniProt F0NID4 1-505, looked up)
chain: MNDLMLDKSALLFGVSKYLEKGIITGNVLIHKSLLAELERESNDGLVSAEIALDEVKKLKDITERILVNFEIVGDDSKKGEANELSREYCLEKGCIIVTADETQKKICDAMGIQYNFLQPLKQGLSFESFFDDETMSLHIKEDTVPRAKKGKPGNWKFVNLSDKPMLSTDVRMIANEIINAVRLIKGSFVEIERRGSLIIQLGNYRVVITRPPLSDGWEITITRPVVRKRLEDYNLDERLIKRLEERAEGIIIAGAPGMGKTTFAQALAEYYMRLGKIVKTIESPRDMHLPPEITQYSKNYAEIGELHDILLLSRPDYTVYDEMRNDEDFKLYVDLRLAGVGMVGVVHATSPIDAIHRFVNRVDIGTIPNILDTIIFINSGNVSKVYTLEMTVKVPAGLKEADLARPVVEIKDLATGNTEYEIYVFGEQTMIVPVNRGITMSNMEFKISKIVNNIIPNATVKYEDGEYVIVIPKEEIGKYNRKLVQRLKRLEKKNNIKIKIKLSD
The stoichiometry N is a count of units in the complex or per binding partner. As to B1, the “stoichiometry N” value in data set [1] is ~1 Hjm monomer per PINA hexamer; in data set [2], 6.
